Laboratory results published in patent US20230183314A1 (ARO BIOTHERAPEUTICS, published 2023).
Positions count from the first letter of the chain named. Where two headings read alike, the source gives them in different places.

Tests used:
[1] = target: T1, cynomolgus monkey PSMA-Fc fusion (human; cynomolgus monkey, PSMA is a glycosylated homodimer. Only one subunit is given.); assay: binding to cynoPSMA-Fc; method not described
T1 construct: also called cyno PSMA Fc; cynoPSMA-Fc; not shown: Human IgG1 Fc domain, which sits N-terminal of the PSMA ECD, and the junction with the Prescission protease site
T1 chain: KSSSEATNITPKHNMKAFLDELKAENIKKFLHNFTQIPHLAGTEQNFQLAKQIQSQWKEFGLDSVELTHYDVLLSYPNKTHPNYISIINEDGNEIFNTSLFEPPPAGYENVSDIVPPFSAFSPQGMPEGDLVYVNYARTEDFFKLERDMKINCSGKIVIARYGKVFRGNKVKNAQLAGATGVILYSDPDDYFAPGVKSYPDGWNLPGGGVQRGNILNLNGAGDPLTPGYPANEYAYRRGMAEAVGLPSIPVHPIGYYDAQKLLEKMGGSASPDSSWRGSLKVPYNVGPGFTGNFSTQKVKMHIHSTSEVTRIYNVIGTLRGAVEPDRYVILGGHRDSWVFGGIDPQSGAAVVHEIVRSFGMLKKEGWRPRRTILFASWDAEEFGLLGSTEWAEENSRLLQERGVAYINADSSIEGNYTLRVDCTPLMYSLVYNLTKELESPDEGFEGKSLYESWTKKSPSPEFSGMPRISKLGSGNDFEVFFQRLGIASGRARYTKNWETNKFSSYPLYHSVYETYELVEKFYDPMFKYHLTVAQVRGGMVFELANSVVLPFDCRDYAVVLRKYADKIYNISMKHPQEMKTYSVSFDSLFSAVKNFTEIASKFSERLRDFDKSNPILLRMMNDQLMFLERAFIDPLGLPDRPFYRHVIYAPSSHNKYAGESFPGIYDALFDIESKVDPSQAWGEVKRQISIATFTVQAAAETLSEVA

[2] = target: T2, human prostate specific membrane antigen (PSMA) (human, UniProt Q04609 1-750); assay: flow cytometry, direct binding to LNCaP cells (relative cell binding, MFI, against concentration in nM); the table under the plot labels the half-maximal concentration IC50; unit taken from the concentration axis
T2 construct: Endogenous PSMA on the human prostate cancer cell lines LNCaP, 22Rv1, MDA-PCA-2B and VCAP; also called human PSMA

[3] = target: T2, human prostate specific membrane …; assay: as above; remark: listed apart in the source
[4] = target: T2, human prostate specific membrane …; assay: binding to LNCaP cells (flow cytometry, FIG. 8C)
[5] = target: T2, human prostate specific membrane …; assay: flow cytometry, direct binding to LNCaP cells (relative cell binding, MFI, against concentration in nM); the table under the plot labels the half-maximal concentration IC50; unit taken from the concentration axis; remark: listed apart in the source
[6] = target: T2, human prostate specific membrane …; assay: binding to LNCaP cells (flow cytometry, FIG. 9C)
[7] = target: T1, cynomolgus monkey PSMA-Fc fusion; assay: binding to cynoPSMA-Fc; method not described

T2 sequence (Q04609 whole entry): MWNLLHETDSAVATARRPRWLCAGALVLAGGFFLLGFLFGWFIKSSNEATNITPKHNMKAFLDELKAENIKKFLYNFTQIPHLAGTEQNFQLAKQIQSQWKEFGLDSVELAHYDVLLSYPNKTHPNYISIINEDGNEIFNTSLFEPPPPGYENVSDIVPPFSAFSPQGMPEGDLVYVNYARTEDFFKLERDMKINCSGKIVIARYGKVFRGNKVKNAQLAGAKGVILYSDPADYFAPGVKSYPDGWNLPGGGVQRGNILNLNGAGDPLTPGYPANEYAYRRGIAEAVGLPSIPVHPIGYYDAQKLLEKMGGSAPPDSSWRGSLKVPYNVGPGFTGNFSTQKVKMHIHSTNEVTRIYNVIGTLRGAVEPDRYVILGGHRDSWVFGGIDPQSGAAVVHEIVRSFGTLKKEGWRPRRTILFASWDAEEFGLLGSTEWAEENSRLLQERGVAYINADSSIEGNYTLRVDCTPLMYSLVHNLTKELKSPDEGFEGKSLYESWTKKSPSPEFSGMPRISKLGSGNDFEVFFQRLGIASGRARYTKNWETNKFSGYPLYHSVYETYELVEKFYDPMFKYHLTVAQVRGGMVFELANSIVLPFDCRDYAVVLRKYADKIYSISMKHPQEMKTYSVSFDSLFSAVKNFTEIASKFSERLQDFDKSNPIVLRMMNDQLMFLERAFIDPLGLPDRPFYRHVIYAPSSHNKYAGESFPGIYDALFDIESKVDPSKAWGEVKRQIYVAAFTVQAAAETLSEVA

B1: P233FR9_H10 PSMA binding FN3 domain (designed binder)
chain: LPAPKNLVVSRVTEDSARLSWTAPDAAFDSFAIGYWEWDDDGEAIVLTVPGSERSYDLTGLKPGTEYPVYIAGVKGGQWSFPLSAIFTT
notes: His-tagged, expressed in E. coli; also called H10 centyrin; not shown: C-terminal poly-histidine tag
- Kd [1]: 692000 pM
- IC50 [2]: 598 pM
- IC50 [3]: 598 pM
- Kd [4]: ~3 pM
- IC50 [5]: 598 pM

B2: P233FR9_H10_v18 (designed binder)
chain: B1 chain with G34A, E53C
notes: Optimized Centyrin; not shown: C-terminal poly-histidine tag
- IC50 [3]: 608 pM

B3: P258AR6P1071_D02 (designed binder)
chain: LPAPKNLVVSRVTEDSARLSWAIDEQRDWFESFLIQYQESEKVGEAIVLTVPGSERSYDLTGLKPGTEYTVSIYGVYHVYRSNPLSAIFTT
notes: not shown: C-terminal poly-histidine tag
- Kd [6]: ~25 pM
- Kd [7]: 100 pM
- IC50 [5]: 1320 pM
